Measured values reported in patent US20220228157A1, “GENE EDITING IN DIVERSE BACTERIA” (priority 2019, published 2022).

Tests used:
[1] = biological target: E. coli single-stranded binding protein (EcSSB) (E. coli) (UniProt P0AGE0); assay: cell-based or functional assay; conditions: scale: fold improved over the RecT protein alone
[2] = biological target: EcSSBΔ9 (EcSSB with a 9-amino-acid C-terminal deletion) (E. coli) (UniProt P0AGE0); assay: cell-based or functional assay
[3] = biological target: L. lactis single-stranded binding protein (LlSSB) (L. lactis) (UniProt Q9CDM9); assay: cell-based or functional assay
[4] = biological target: LlSSB C7:EcSSB (L. lactis SSB with its last 7 C-terminal residues replaced by those of EcSSB) (L. lactis) (UniProt Q9CDM9); assay: cell-based or functional assay
[5] = biological target: LlSSB C8:EcSSB (L. lactis SSB with its last 8 C-terminal residues replaced by those of EcSSB) (L. lactis) (UniProt Q9CDM9); assay: cell-based or functional assay
[6] = biological target: PaSSB (Pseudomonas aeruginosa single-stranded binding protein) (Pseudomonas aeruginosa) (UniProt P40947); assay: cell-based or functional assay
[7] = tested on: E. coli; assay: Editing efficiency by NGS, non-coding mismatch at a non-essential gene; assay type: cell-based, Escherichia coli; conditions: versus Redβ expressed off wild-type codons
Method: Top-performing SSAPs and SSAP/SSB pairs from experiments in E. coli, L. lactis, and M. smegmatis are shown in FIG. 2A, FIG. 2B and FIG. 2C, respectively. Bars in red are the proteins that had previously been reported in the literature. The proteins listed were found after ten rounds of selection for protein variants that enabled the introduction of an oligonucleotide that conferred a genomic edit that provided antibiotic resistance. Unbiased editing efficiency was tested in each case by introducing a non-coding base change at a non-essential gene and measuring the frequency of incorporation via next generation sequencing.
Their recombineering efficiency was tested against Redβ expressed off of its wild-type codons on the same plasmid system used for the SEER selections. […]
The efficiency of each SSAP or SSAP/SSB pair was measured by expressing them off of their host-specific plasmid in the naïve parent strain and running a recombineering cycle with an oligo that confers a 4-nucleotide non-coding mismatch in a non-essential gene. The allele was then amplified by PCR and editing efficiency was measured by next-generation sequencing.
To measure single locus editing, a recombineering cycle was run with an oligo that confers a single base pair non-coding mismatch in a non-essential gene. The allele was then amplified by PCR and editing efficiency was measured by NGS as described above. […]

[8] = tested on: Agrobacterium tumefaciens; assay: Oligo-recombineering efficiency of SSAP/SSB library members; assay type: cell-based; conditions: A. tumefaciens, after two rounds of selection
Method: A library of the most broadly-acting three (3) SSAPs and twenty five (25) SSBs was cloned into an Agrobacterium tumefaciens (A. tumefaciens) vector (75-member library). The library was selected for efficient genome editing, and oligo-recombineering. Efficiency was measured from the two most frequent members of the library after two rounds of selection. Editing efficiency of close to 1% was measured in SSAP SEQ ID NO: 143/SSB SEQ ID NO: 310. […] A. tumefaciens is quite distantly related to E. coli, L. lactis, and M. smegmatis (FIG. 7).

[9] = tested on: E. coli; assay: Fifteen cycles of MAGE with pool of 15 oligos, editing efficiency by NGS; assay type: cell-based, Escherichia coli; conditions: 15 separate mutations, one week
Method: E. coli populations expressing either an efficient SSAP (SEQ ID NO: 157), an efficient SSAP/SSB pair (SEQ ID NO: 157/SEQ ID NO: 384), or the widely-used Redβ were taken through fifteen cycles of MAGE and transformed each cycle with a 10 μM pool comprising 15 unique oligos. Editing efficiency at each targeted locus was measured by NGS and averaged (FIG. 3).

Molecule: Redβ single-stranded annealing protein (SSAP) from Enterobacteria phage λ (from UniProt P03698 1-261)
- editing efficiency in L. lactis, pair against the RecT protein alone [1]: 483
- genome editing efficiency in L. lactis (fold lower than Redβ with EcSSB) [2]: 44
- genome editing efficiency in L. lactis (fold less than Redβ with EcSSB) [3]: 38.5
- editing rate in L. lactis (fold of Redβ with EcSSB) [4]: 5.9
- editing rate in L. lactis (fold of Redβ with EcSSB) [5]: 2.6
- editing efficiency in C. crescentus (fold over Redβ alone) [6]: 15
- editing efficiency in C. crescentus after expression optimization and evasion of mismatch repair (fold higher than Redβ alone) [6]: 112
- editing efficiency in C. crescentus after expression optimization and evasion of mismatch repair (fold over the background level) [6]: 873

B1: codon-optimized version of Redβ: Redβ expressed from the codon-optimized gene included in Broad SSAP Library (protein, UniProt P03698 1-261, looked up)
Recombination protein bet: MSTALATLAGKLAERVGMDSVDPQELITTLRQTAFKGDASDAQFIALLIVANQYGLNPWTKEIYAFPDKQNGIVPVVGVDGWSRIINENQQFDGMDFEQDNESCTCRIYRKDRNHPICVTEWMDECRREPFKTREGREITGPWQSHPKRMLRHKAMIQCARLAFGFAGIYDKDEAERIVENTAYTAERQPERDITPVNDETMQEINTLLIALDKTWDDDLLPLCSQIFRRDIRASSELTQAEAVKALGFLKQKAAEQKVAA
modifications: expressed from codon-optimized gene
notes: Redβ expressed from the codon-optimized gene included in Broad SSAP Library
- Effect of codon usage on editing efficiency [7]: significantly decreased efficiency

B2: SSAP SEQ ID NO: 143/SSB SEQ ID NO: 310: co-expressed SSAP/SSB pair (protein, listed as Helicobacter pullorum)
chain 1: MAENEKQALLQEENKSENVVSTVKRTALATNPFSDTDQFNNIFKMAQLISQSDMIPATYKGKPMNCVIALEQANRMGVSPLMVMQNLYVVKGVPSWSGQGCMMIIQGCGKFRDVDYVYSGEKGTDSRSCKVVATRISDGKRIEGTEITMQMVKSEGWISNTKWKNMPEQMLGYRAATFFARMYCPNELNGFATEGEAEDMNHKPQRIEAINVLGDTAHE
chain 2: MFNKVILVGNLTRDVELRYLPSGAALARLNLATNRRYKKQDGTQAEEVCFIDVNLFGRTAEVANQYLKKGSQVLIEGRLVLESWTDNTGAKRTKHSITAESMQMLGQRQSTQEENHDYGAGDYNNYQEYEKPAYTASAAPKAQPVQKEPELPVIDINDDEIPF
modifications: Clostridium sp FS41
notes: co-expressed SSAP/SSB pair
- Editing efficiency [8]: ~1%

B3: SEQ ID NO: 157/SEQ ID NO: 384: efficient SSAP/SSB pair co-expressed in E. coli (protein, listed as Clostridium sordellii)
chain 1: MNQIVKFTDDSGLAVQVTPDDVRRYICENATEKEVGLFLQLCQTQRLNPFVKDAYLVKYGGAPASMITSYQVFNRRACRDANYDGIKSGVVVLRDGDVVHKRGAACYKKAGEELIGGWAEVRFKDGRETAYAEVALDDYSTGKSNWAKMPGVMIEKCAKAAAWRLAFPDTFQGMYAAEEMDQAQQPEQVRAQAEQPVDLQPIRELFKPYCEHFGITPAEGMTAVCGAVGAEGMHSMTEQQARRARAWMEEEMAAPAVEAEYEVVDEGEVF
chain 2: MNHVVLVGRLTKDPELRYIPGTGTAVATFTIAIDRDYAKKDGSRETDFIPVEVMGKSAEFCANYISKGRLVALQGSIRVDNYQNQSGERRTFTKVSARNIQALDSNKNRSDSPYPSQNQSFEPSFEPSFEPTGLDPQGFQAIDDDDIPF
modifications: Collinsella stercoris DSM 13279
notes: efficient SSAP/SSB pair co-expressed in E. coli
- Editing efficiency, averaged over targeted loci [9]: ~100%
